Data on 1 molecule can be found in article PMC3357558.

The target in assay [1] is ITK-BTK((SH3)): ITK whose SH3 domain is replaced with the SH3 domain of BTK, fluorescent protein chimera (UniProt P35991).
The target is the same in assay [2]. The assay can be described thus: co-IP; Jurkat (JTag) cells transfected with GFP-ITK constructs, stimulated or not with 5 ug/mL anti-CD3e OKT3 cross-linked with rabbit anti-mouse IgG for 1 minute at 37°C, lysed; FP-ITK immunoprecipitated with anti-GFP IgG; SLP-76 and ITK immunoblotted; association index by densitometry against the nonstimulated lane.

UniProt P35991, sequence (P35991 whole entry, stated change not applied, the tested form may be a part): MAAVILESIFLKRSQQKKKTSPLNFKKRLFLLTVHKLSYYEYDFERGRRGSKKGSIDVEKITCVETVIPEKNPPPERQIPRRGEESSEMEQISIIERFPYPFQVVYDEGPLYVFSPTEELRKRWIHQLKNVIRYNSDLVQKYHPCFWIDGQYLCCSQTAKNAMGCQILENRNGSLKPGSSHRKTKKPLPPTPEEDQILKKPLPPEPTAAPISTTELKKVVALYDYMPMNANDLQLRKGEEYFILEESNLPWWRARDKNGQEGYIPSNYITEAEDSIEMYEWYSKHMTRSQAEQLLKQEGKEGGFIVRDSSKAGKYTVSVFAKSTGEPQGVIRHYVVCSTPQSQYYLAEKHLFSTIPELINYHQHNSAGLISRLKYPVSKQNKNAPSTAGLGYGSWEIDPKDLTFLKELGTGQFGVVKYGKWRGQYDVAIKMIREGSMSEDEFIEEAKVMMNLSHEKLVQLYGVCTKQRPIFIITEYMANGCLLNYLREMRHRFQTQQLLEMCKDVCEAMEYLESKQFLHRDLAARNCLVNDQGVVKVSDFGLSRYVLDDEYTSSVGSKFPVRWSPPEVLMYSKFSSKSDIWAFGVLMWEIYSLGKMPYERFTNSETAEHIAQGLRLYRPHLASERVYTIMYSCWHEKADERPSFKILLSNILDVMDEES

B1: SLP-76 (natural protein)
chain: MALRNVPFRSEVLGWDPDSLADYFKKLNYKDCEKAVKKYHIDGARFLNLTENDIQKFPKLRVPILSKLSQEINKNEERRSIFTRKPQVPRFPEETESHEEDNGGWSSFEEDDYESPNDDQDGEDDGDYESPNEEEEAPVEDDADYEPPPSNDEEALQNSILPAKPFPNSNSMYIDRPPSGKTPQQPPVPPQRPMAALPPPPAGRNHSPLPPPQTNHEEPSRSRNHKTAKLPAPSIDRSTKPPLDRSLAPFDREPFTLGKKPPFSDKPSIPAGRSLGEHLPKIQKPPLPPTTERHERSSPLPGKKPPVPKHGWGPDRRENDEDDVHQRPLPQPALLPMSSNTFPSRSTKPSPMNPLPSSHMPGAFSESNSSFPQSASLPPYFSQGPSNRPPIRAEGRNFPLPLPNKPRPPSPAEEENSLNEEWYVSYITRPEAEAALRKINQDGTFLVRDSSKKTTTNPYVLMVLYKDKVYNIQIRYQKESQVYLLGTGLRGKEDFLSVSDIIDYFRKMPLLLIDGKNRGSRYQCTLTHAAGYP
Turning to B1, the TCR-induced tyrosine phosphorylation of ITK-BTK(SH3) in transfected Jurkat cells (anti-ITK IP, antiphosphotyrosine blot), reduction in signal intensity against wild type ITK in assay [1] was 15%. The molecule further returned a reduction of the ITK-SLP-76 association against wild-type ITK in assay [2] of 32%.
